{
  "source": "patent US20260085127A1",
  "about": "(BRIGHTPATH BIOTHERAPEUTICS, published 2026)",
  "key": {"[1]": {"biological_target": "T1, human TIM-3 (Accession No. JX049979.1) stably expressed on cells (human, UniProt Q8TDQ0 22-301)", "T1 construct": "whole, on cells; On Jurkat or 293T cells; also called Jurkat/TIM-3; 293T/TIM-3", "assay": "flow cytometry, Jurkat/TIM-3 + CD39 cells, KD from MFI"}, "[2]": {"biological_target": "T2, biotinylated human TIM-3-Fc antigen (in-house product, SEQ ID No: 118) (human, biotinylated)", "assay": "flow cytometry, inhibition of biotinylated TIM-3-Fc binding to phosphatidylserine on apoptotic Jurkat cells"}, "[3]": {"biological_target": "T3, human CD39 (Accession No. NM_001776.6) expressed on cells (human, UniProt P49961 1-510)", "T3 construct": "whole, on cells; On Jurkat, 293T or SK-MEL28 cells; also called Jurkat/CD39; 293T/CD39", "T3 sequence (looked up)": "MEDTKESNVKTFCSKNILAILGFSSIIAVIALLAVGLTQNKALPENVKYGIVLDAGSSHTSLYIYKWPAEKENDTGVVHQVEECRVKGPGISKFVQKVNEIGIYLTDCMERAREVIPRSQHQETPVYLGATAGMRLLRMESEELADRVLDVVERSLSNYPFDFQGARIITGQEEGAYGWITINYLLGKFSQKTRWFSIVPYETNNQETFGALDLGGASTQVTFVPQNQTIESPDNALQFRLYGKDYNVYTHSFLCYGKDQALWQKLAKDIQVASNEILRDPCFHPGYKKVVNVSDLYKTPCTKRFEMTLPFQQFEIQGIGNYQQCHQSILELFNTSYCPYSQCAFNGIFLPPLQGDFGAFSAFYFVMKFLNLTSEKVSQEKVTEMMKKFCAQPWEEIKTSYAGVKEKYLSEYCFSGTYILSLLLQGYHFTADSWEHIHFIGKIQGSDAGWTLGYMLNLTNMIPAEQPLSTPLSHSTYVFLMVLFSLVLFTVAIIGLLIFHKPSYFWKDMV", "assay": "flow cytometry on a mix of Jurkat, Jurkat/TIM-3, Jurkat/CD39 and Jurkat/TIM-3+CD39 cells in one well, antibody at 0.1 nM, BV421-anti-hIgG, MFI of BV421 per cell group"}, "[4]": {"biological_target": "T2, biotinylated human TIM-3-Fc antigen …", "assay": "competition ELISA: human Galectin-9 coated, biotinylated human TIM-3-Fc pre-mixed with the antibody dilution series, Streptavidin-HRP, A450; blocked ligand: human Galectin-9"}, "[5]": {"biological_target": "T2, biotinylated human TIM-3-Fc antigen …", "assay": "flow cytometry, inhibition of biotinylated TIM-3-Fc binding to phosphatidylserine on apoptotic Jurkat cells", "remark": "listed apart in the source"}, "[6]": {"biological_target": "T2, biotinylated human TIM-3-Fc antigen …", "assay": "competition ELISA: human Galectin-9 coated, biotinylated human TIM-3-Fc pre-mixed with the antibody dilution series, Streptavidin-HRP, A450; blocked ligand: human Galectin-9", "remark": "listed apart in the source"}, "[7]": {"biological_target": "T2, biotinylated human TIM-3-Fc antigen …", "assay": "competition ELISA: human Galectin-9 coated, biotinylated human TIM-3-Fc pre-mixed with the antibody dilution series, Streptavidin-HRP, A450; blocked ligand: human Galectin-9", "remark": "listed apart in the source"}, "[8]": {"biological_target": "T1, human TIM-3 (Accession No. JX049979.1) …", "assay": "flow cytometry, 293T/TIM-3 + CD39 cells, KD from MFI"}, "[9]": {"biological_target": "T1, human TIM-3 (Accession No. JX049979.1) …", "assay": "flow cytometry, 293T/TIM-3 cells, KD from MFI"}, "[10]": {"biological_target": "T1, human TIM-3 (Accession No. JX049979.1) …", "assay": "flow cytometry, Jurkat/TIM-3 cells, KD from MFI"}},
  "note": "“And” between values parts separate entries of the source, which are not always exact repeats. Identical values can stand only once. Like-named read-outs stand apart in the source and are kept apart here.",
  "data": [
    {"binder": "Hu003_13_F20_sc (antibody, scFv-Fc homodimer, anti-TIM-3; also called scFv-Fc homodimeric antibody of anti-TIM-3_scFv antibody (humanized) Hu003_13_F20; not shown: GGGG linker and Fc-LALA (IgG1 Fc with L234A and L235A)) scFv: QVQLQESGGGLVKPGGSLKLSCAASGFTFSSYYMSWVRQTPDKRLEWVATISNSGGSTYYPDSVKDRFTISRDNAKNTLYLQMSSLKSEDTAMYYCARDPYYTNYVPMDYWGQGTMVTVSSGGGGSGGGGSGGGGSGGGGSDIVMTQSPSFLSASVGDRVTITCKASQYVDTYVAWYQQRPGKAPKPLIYSASTRHTGVPSRFSGSGSGTEFTLTISSLQPEDFATYFCAQYSSSPLTFGGGTKLELK", "values": [
      {"measurement": "Kd", "setting": "[1]", "value": 0.339, "unit": "nM"},
      {"measurement": "IC50", "setting": "[2]", "value": "16.7 nM and 6.66 nM and 8.42 nM"},
      {"measurement": "binding result", "setting": "[3]", "value": "no binding (tested: 0.1 nM)"},
      {"measurement": "IC50 (read off the curve)", "setting": "[4]", "value": "~0.5 nM and ~1 nM"},
      {"measurement": "IC50", "setting": "[5]", "value": "8.56 nM and 8.62 nM"},
      {"measurement": "IC50 (read off the curve)", "setting": "[6]", "value": "~0.5 nM and ~0.3 nM"},
      {"measurement": "IC50 (read off the curve)", "setting": "[7]", "value": "~1", "unit": "nM"},
      {"measurement": "Kd", "setting": "[8]", "value": 3.86, "unit": "nM"},
      {"measurement": "Kd", "setting": "[9]", "value": 2.72, "unit": "nM"},
      {"measurement": "Kd", "setting": "[10]", "value": 0.274, "unit": "nM"}
    ]}
  ]
}
